Common to all, as to details: Hepacivirus hominis
Substrate in data set [1]: CCCN(NC(=O)[C@H]1CCCN1C(=O)[C@@H](NC(=O)[C@@H](NC(C)=O)C(C)C)C(C)C)C(=O)Oc1ccc([N+](=O)[O-])cc1
The experiment in a line: (§1) Michaelis-Menten constant was determined against Hepatitis C virus NS3 protease and represented as Km.

Substrate in data set [2]: CCCC(NC(=O)[C@H]1CCCN1C(=O)[C@@H](NC(=O)[C@@H](NC(=O)[C@H](CC(=O)O)NC(=O)[C@H](CCC(=O)O)NC(=O)[C@@H](NC(=O)[C@H](CC(=O)O)NC(C)=O)[C@@H](C)O)C(C)C)C(C)C)C(=O)Oc1ccc([N+](=O)[O-])cc1
The data set is described as §1.

Substrate in data set [3]: CCCN(NC(=O)[C@H]1CCCN1C(=O)[C@@H](NC(=O)[C@@H](NC(=O)[C@H](CC(=O)O)NC(C)=O)C(C)C)C(C)C)C(=O)Oc1ccc([N+](=O)[O-])cc1
The data set is described as §1.

Substrate in data set [4]: CCCN(NC(=O)[C@H]1CCCN1C(=O)[C@@H](NC(=O)[C@@H](NC(=O)[C@H](CC(=O)O)NC(=O)[C@H](CCC(=O)O)NC(C)=O)C(C)C)C(C)C)C(=O)Oc1ccc([N+](=O)[O-])cc1
The description is as §1.

Substrate in data set [5]: CCCN(NC(=O)[C@H]1CCCN1C(=O)[C@@H](NC(=O)[C@@H](NC(=O)[C@H](CC(=O)O)NC(=O)[C@H](CCC(=O)O)NC(=O)[C@@H](NC(C)=O)[C@@H](C)O)C(C)C)C(C)C)C(=O)Oc1ccc([N+](=O)[O-])cc1
The experiment in a line: Binding affinity against Hepatitis C virus NS3 protease.

Substrate in data set [6]: CCCN(NC(=O)[C@H]1CCCN1C(=O)[C@@H](NC(=O)[C@@H](NC(=O)[C@H](CC(=O)O)NC(=O)[C@H](CCC(=O)O)NC(=O)[C@@H](NC(=O)[C@H](CC(=O)O)NC(C)=O)[C@@H](C)O)C(C)C)C(C)C)C(=O)Oc1ccc([N+](=O)[O-])cc1
As to the kind of experiment: Michaelis-Menten constant against Hepatitis C virus NS3 protease and represented as Km.

B1: NS3 (Hepatitis C virus), A3EZJ3 (protein)
chain: APITAYAQQTRGLLGCIITGLTGRDKNQVEGEVQIVSTAAQTFLATCINGVCWTVYHGAGTRTIASSKGPVIQMYTNVDQDLVGWPAPQGARSLTPCTCGSSDLYLVTRHADVIPVRRRGDGRGSLLSPRPISYLKGSSGGPLLCPAGHAVGIFRAAVCTRGVAKAVDFIPVEGLETTMRSPVFSDNSSPPAVPQSYQVAHLHAPTGSGKSTKVPAAYAAQGYKVLVLNPSVAATLGFGAYMSKAHGIDPNIRTGVRTITTGSPITYSTYGKFLADGGCSGSAYDIIICDECHSTDATSILGIGTVLDQAETAGARLTVLATATPPGSVTVPHPNIEEVALSTTGEIPFYGKAIPLEAIKGGRHLIFCHSKKKCDELAAKLVALGVNAVAYYRGLDVSVIPASGDVVVVATDALMTGFTGDFDSVIDCNTCVTQTVDFSLDPTFTIETTTLPQDAVSRTQRRGRTGRGKPGIYRFVTPGERPSGMFDSSVLCECYDAGCAWYELTPAETTVRLRAYMNTPGLPVCQDHLEFWEGVFTGLTHIDAHFLSQTKQSGENLPYLVAYQATVCARAQAPPPSWDQMWKCLIRLKPTLHGPTPLLYRLGAVQNEITLTHPITKYIMTCMSADLEVVT
Usually Km stands for the substrate concentration at which the rate is half of its maximum. For B1, the Km came to 100 µM in data set [1]; 4 µM in data set [2]; 9 µM in data set [3]; 4 µM in data set [4]; 5 µM in data set [5]; 5 µM in data set [6].

The record behind these values is ChEMBL document CHEMBL1135259, “Azapeptides as inhibitors of the hepatitis C virus NS3 serine protease” (Bioorg Med Chem Lett, 2002).
